Measurements: patent US20230083243A1 (VEGA THERAPEUTICS, published 2023)
Values belong to the binder of their own block, whether it stands above or below them.

Legend:
[1] = target: T1, recombinant heavy chain Protein S (human, UniProt P07225 42-296); assay: ELISA; plate coated with recombinant Protein S heavy chain; 1 mM CaCl2
T1 construct: Fragment of Protein S spanning amino acids 42-296, expressed and purified from HEK293 cells; also called Protein S heavy chain; heavy chain of Protein S
T1 sequence: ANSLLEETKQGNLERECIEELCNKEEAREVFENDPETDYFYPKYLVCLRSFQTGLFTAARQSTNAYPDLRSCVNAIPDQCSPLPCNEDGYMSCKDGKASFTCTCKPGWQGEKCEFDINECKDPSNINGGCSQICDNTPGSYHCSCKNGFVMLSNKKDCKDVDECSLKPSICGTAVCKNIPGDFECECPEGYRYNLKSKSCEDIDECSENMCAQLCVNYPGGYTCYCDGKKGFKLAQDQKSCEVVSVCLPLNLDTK
Protocol: (§1) Binding to the heavy chain of Protein S was determined using an ELISA based method. Briefly, high binding ELISA plates were coated with recombinant heavy chain Protein S expressed and purified from HEK293 cells. The “heavy chain” of Protein S represents a fragment of Protein S spanning amino acids 42-296. The coated plate was blocked with 1% casein solution. Then, buffer containing […] of antibody was applied to the well with buffer containing 1 mM calcium chloride.

human Protein S [2] = target: T2, human Protein S (human, UniProt P07225 42-676); assay: ELISA; plate coated with human Protein S; 1 µg/ml antibody; 1 mM calcium chloride
T2 construct: also called ProS; ProS1
T2 sequence: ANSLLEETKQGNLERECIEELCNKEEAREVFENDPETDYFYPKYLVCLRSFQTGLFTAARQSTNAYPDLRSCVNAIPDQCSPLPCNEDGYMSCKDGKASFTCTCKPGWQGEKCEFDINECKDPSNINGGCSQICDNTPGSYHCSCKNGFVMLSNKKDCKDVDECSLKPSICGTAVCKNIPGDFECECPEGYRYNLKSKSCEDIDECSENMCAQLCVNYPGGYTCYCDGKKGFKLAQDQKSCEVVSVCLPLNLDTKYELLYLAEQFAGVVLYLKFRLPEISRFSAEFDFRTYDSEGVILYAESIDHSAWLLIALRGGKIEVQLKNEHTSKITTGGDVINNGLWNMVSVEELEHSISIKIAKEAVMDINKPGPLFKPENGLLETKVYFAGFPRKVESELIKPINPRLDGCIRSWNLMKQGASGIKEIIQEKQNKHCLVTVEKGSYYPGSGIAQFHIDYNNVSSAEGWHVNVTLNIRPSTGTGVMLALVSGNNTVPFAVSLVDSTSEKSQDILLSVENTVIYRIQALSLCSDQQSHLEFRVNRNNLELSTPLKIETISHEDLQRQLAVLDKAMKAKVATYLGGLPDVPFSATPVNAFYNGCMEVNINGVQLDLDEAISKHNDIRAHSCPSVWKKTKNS
Protocol: (§2) Calcium dependence of binding was determined using an ELISA based method. Briefly, high binding ELISA plates were coated with human Protein S. Then, buffer containing 1 μg/ml of antibody was applied to the well with either buffer containing 1 mM EDTA or 1 mM calcium chloride.

human Protein S [3] = target: T2, human Protein S; assay: ELISA; plate coated with human Protein S; 1 µg/ml antibody; 1 mM EDTA
Protocol: as §2

human Protein S [4] = target: T2, human Protein S; assay: cell-based or functional assay
[5] = target: T1, recombinant heavy chain Protein S; assay: ELISA on recombinant Protein S heavy chain
Protocol: as §1

Binding to heavy chain (OD) [1]: 0.13 OD
binding result [5]: no binding
Binding to Protein S in CaCl2 (OD) (human Protein S [2]): 1.03 OD
Binding to Protein S in EDTA (OD) (human Protein S [3]): 0.63 OD
IC50 APC (human Protein S [4]): 99 nM
B2: Antibody 31 (antibody, V domains shown)
VH: QVQLQESGPGLVKPSETLSLTCTVSGGSISGNYWSWIRQPPGKGLEWIGYIYYSGSTNYNPSLKSRVTISVDTSKNQFSLKLSSVTAADTAVYYCARDLDYFTWGAYSDWYFDLWGRGTLVTVSS
VL: DIQMTQSPSSLSASVGDRVTITCRASQSISTFLNWYQQKPGKAPKLLIYATSSLRSGVPSRFSGSGSGTDFTLTISSLQPEDFAIYYCQQSYSTPRTFGQGTQVEIK
notes: Human variable region with rat Fc

Binding to heavy chain (OD) [1]: 0.1 OD
binding result [5]: no binding
Binding to Protein S in CaCl2 (OD) (human Protein S [2]): 0.57 OD
Binding to Protein S in EDTA (OD) (human Protein S [3]): 0.26 OD
IC50 TFPI (human Protein S [4]): < 4.4 nM
B4: Antibody 23 (antibody, V domains shown)
VH: QVQLVQSGAEVKKPGASVKVSCKSSGHTFTGYYMHWVRQAPGQGLEWMGWINPNSGDTNYAQKFQGRVTMTRDTSISTAYMEMSRLRSDDTAVYYCARDSQILWFGELGYWGQGTLVTVSS
VL: QAVVTQESALTTSPGETVTLTCRSSTGAVTASNYANWVQEKPDHLFTGLIGSTNNRAPGVPARFSGSLIGDKAALTITGAQTEDEAIYFCALWYSDHFVFGGGTKLTVL
notes: as for B2

Binding to heavy chain (OD) [1]: 1.63 OD
Binding to Protein S in CaCl2 (OD) (human Protein S [2]): 1.77 OD
Binding to Protein S in EDTA (OD) (human Protein S [3]): 0.48 OD
IC50 APC (human Protein S [4]): 5.3 nM
IC50 TFPI (human Protein S [4]): 51.1 nM
B5: Antibody 13 (antibody, V domains shown)
VH: QVQLVQSGAEVKKPGSSVKVSCKVSGGTFSSYSISWVRQAPGQGLEWMGGIIPIFGTTNYAQKFQGRVTITADESTSTAYMDLSSLKSEDTAMYYCEGGRVGADFDYWGQGTLVTVSS
VL: SSDLTQGPAVSVALGQTVRITCQGDSLRNYYASWYQQKPGQAPVPVIYGKNDRPSGIPDRFSGSISGNTASLTITGAQAEDEAHYYCNSRDSSGNHVVFGGGTKLTVL
notes: as for B2

Binding to heavy chain (OD) [1]: 1.78 OD
Binding to Protein S in CaCl2 (OD) (human Protein S [2]): 1.86 OD
Binding to Protein S in EDTA (OD) (human Protein S [3]): 0.07 OD
IC50 APC (human Protein S [4]): 13.5 nM
IC50 TFPI (human Protein S [4]): 77.3 nM
B6: Antibody 15 (antibody, V domains shown)
VH: EVQLVESGGGLVQPGRSLRLSCAASGFTFDDYAMHWVRQAPGKGLEWVSGITWNSGNIGYADSVKGRFTISRDNAKNSLYLHMNSLRIEDTAFYYCAKGRAVSDTFDIWGQGTMVTVSS
VL: SYELNQPPSVSVSPGQTASITCSGDKLGDKYASWYQQKPGQSPVVAIYQNSKRPSGIPERFSASNSGNTATLTISGTQALDEADYYCQAWDSSTWVFGGGTKLTVL
notes: as for B2

Binding to heavy chain (OD) [1]: 0.71 OD
Binding to Protein S in CaCl2 (OD) (human Protein S [2]): 1.72 OD
Binding to Protein S in EDTA (OD) (human Protein S [3]): 0.06 OD
IC50 APC (human Protein S [4]): 17.9 nM
IC50 TFPI (human Protein S [4]): 73.6 nM
B7: Antibody 24 (antibody, V domains shown)
VH: QVQLQESGPGLVKPSETLSLTCGVSGGSISSTNWWSWVRQPPGKGLEWIGEIYQTGSTDYDPSLKSRVTISIDKSKNQFSLKLYSVTAADTAVYYCARRFGELDYWGQGTLVTVSS
VL: EIVMTQSPATLSVSPGERATLSCRASQSVTSNLAWYQQKPGQAPRLLIYDASTRATGIPARFSGSGSGTEFTLTISSLQSEDFAIYYCQQYNNWPTFGQGTRLEIK
notes: as for B2

Binding to heavy chain (OD) [1]: 1.54 OD
Binding to Protein S in CaCl2 (OD) (human Protein S [2]): 1.93 OD
Binding to Protein S in EDTA (OD) (human Protein S [3]): 0.26 OD
IC50 APC (human Protein S [4]): 12.8 nM
B9: Antibody 20 (antibody, V domains shown)
VH: QVQLQESGPGLVKPSETLSLTCAVSGYSISSGYYWGWIRQPPGKGLDWIGSIYYSGSTYYNPSLKSRVTISVDTSKNQISLKLSSVTAADTAVYYCATTYSDIVTGYYNDAFDIWGQGTMVTVSS
VL: EIVMTQSPATLSVSPGERATLSCRASQRINSNLAWYQQKPGQAPRLLIYGASTRATGIPARFSGSGSGTEFTLTISSLQSEDFAAYYCQQYDNWPLTFGGGTKVEIK
notes: as for B2

Binding to heavy chain (OD) [1]: 0.48 OD
Binding to Protein S in CaCl2 (OD) (human Protein S [2]): 1.17 OD
Binding to Protein S in EDTA (OD) (human Protein S [3]): 0.89 OD
IC50 APC (human Protein S [4]): 492 nM
B13: Antibody 44 (antibody, V domains shown)
VH: QVQLVQSGAEVKKPGASVKVSCKASGYTFTSYYIHWVRQAPGQGLEWMGVTSPSGRSTSFAQKFQGRVTMTRDTSTSAVYMDLDSLRSEDTAVYYCARGGVTIHLERRGYFDYWGQGTLVIVSS
VL: not shown
notes: as for B2

Further lines, the binder ahead of its results:

B1: Antibody 16 (antibody, V domains shown)
VH: QVQLVESGGGVVQPGRSLRLSCAASGFTFSTYGFHWVRQPPGKGLEWVAVIYYDGINKYYADSVKGRFTISRDNSKNTLFLQMNSLRAEDTAVYYCAESDLDYWGQGTLVTVSS
VL: EIVLTQSPATLSLSPGERATLSCRASQSVSIYLAWYQQKPGQAPRLLIYDASNRATGIPARFSGSGSGTDFTLTISSLEPEDFAVYYCQQRSNWPLTFGPGTKVDIK
notes: as for B2
Binding to heavy chain (OD) [1]: 1.67 OD
Binding to Protein S in CaCl2 (OD) (human Protein S [2]): 1.95 OD
Binding to Protein S in EDTA (OD) (human Protein S [3]): 0.17 OD
IC50 APC (human Protein S [4]): 14 nM
IC50 TFPI (human Protein S [4]): 46.3 nM

B3: Antibody 19 (antibody, V domains shown)
VH: QLQLQESGPGLVKPSETLSLTCTVSGGSISSSSYYWGWIRQPPGKGLEWIGNIYYSGNTYYNPSLKSRVTISVDTSKNQFSLKLSSMTAADTAVYYCARCSGYGYSSGRSYFDYWGQETLVTVSS
VL: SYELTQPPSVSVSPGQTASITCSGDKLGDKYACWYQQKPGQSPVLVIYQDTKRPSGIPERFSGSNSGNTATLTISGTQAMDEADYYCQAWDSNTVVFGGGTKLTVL
Binding to heavy chain (OD) [1]: 0.61 OD
Binding to Protein S in CaCl2 (OD) (human Protein S [2]): 1.68 OD
Binding to Protein S in EDTA (OD) (human Protein S [3]): 0.06 OD
IC50 APC (human Protein S [4]): 81.2 nM
IC50 TFPI (human Protein S [4]): 105 nM

B8: Antibody 34 (antibody, V domains shown)
VH: QVQLQQSGTELVRPGTSVKMSCKAAGYTFTNHWIGWVKQRPGHGLEWIGDIYPGGGYTNYNEKFKGKASLTADTSSTTAYMQLSSLTSEDSAIYYCSRFGDQNWAWFAYWGQGTLVTVSA
VL: DIQMNQSPSSLSASLGDTITITCRASQNIHMWLSWYQQKPGNIPKLLIFKTSNLHTGVPSRFSGSGSGTDFTLTISSLQPEDIATYYCLQGQSYPFTFGGGTKLEIK
Binding to heavy chain (OD) [1]: 0.16 OD
binding result [5]: no binding
Binding to Protein S in CaCl2 (OD) (human Protein S [2]): 0.51 OD
Binding to Protein S in EDTA (OD) (human Protein S [3]): 0.06 OD
IC50 APC (human Protein S [4]): 95.8 nM

B10: Antibody 33 (antibody, V domains shown)
VH: QVQLQQSGPGLVKPSQTLSLTCAISGDSVSNNNAAWNWIRQSPSRGLEWLGGTYYRSKWYNDYAVSVKSRIIINPVTSKNQFSLQLNSVTPEDTAVYYCARGSSWYRFFDYWGQGTLVTVSS
VL: EIVLTQSPGTLSLSPGERATLSCRASQSVGSSYLAWYQQKPGQAPRLLISGASGRATGIPDRFSGSGSGTDFTLTISRLEPEDFTVYYCQQYGSSPYTFGQGTKLEIK
notes: as for B2
Binding to heavy chain (OD) [1]: 0.11 OD
binding result [5]: no binding
Binding to Protein S in CaCl2 (OD) (human Protein S [2]): 1.23 OD
Binding to Protein S in EDTA (OD) (human Protein S [3]): 0.2 OD
IC50 APC (human Protein S [4]): 58.1 nM
IC50 TFPI (human Protein S [4]): 34 nM

B11: Antibody 14 (antibody, V domains shown)
VH: QVQLQESGPGLVKPSQTLSLTCTVSGGSITSDGYHWSWIRQYPGKGLDWIGYIYYTGNTYYNPSLKSRVTISVGTSQNQFSLKLISVTAADTAVYYCARRLSTGPYFDYWGQGTLVTVSS
VL: QSALTQPASVSGSPGQSITISCTGTSSDVGGYEFVSWYQHHPGKAPKLMIYDVSSRPSGVSNRFSGSKSGNTASLTISGLQAEDEADYYCSSYTRSSTVVFGGGARLTVL
notes: as for B2
Binding to heavy chain (OD) [1]: 2.03 OD
Binding to Protein S in CaCl2 (OD) (human Protein S [2]): 2.03 OD
Binding to Protein S in EDTA (OD) (human Protein S [3]): 0.75 OD
IC50 APC (human Protein S [4]): 8.76 nM
IC50 TFPI (human Protein S [4]): 73.3 nM

B12: Antibody 21 (antibody, V domains shown)
VH: QVQLVQSGAEVKKPGSSVKVSCKASGDTFSNHAINWVRQAPGQGLEWMGGYIPIFGTTNSAQKFRGRVTITADKSTNTAYMALSSLRSEDTAVYYCARGGLAGSHYKNYYYDGMDVWGQGTTVTVSS
VL: not shown
notes: as for B2
Binding to heavy chain (OD) [1]: 1.58 OD
Binding to Protein S in CaCl2 (OD) (human Protein S [2]): 1.92 OD
Binding to Protein S in EDTA (OD) (human Protein S [3]): 1.4 OD
IC50 APC (human Protein S [4]): 6.23 nM

B14: Antibody 18 (antibody, V domains shown)
VH: QVQLQESGPGLVKPSETLSLTCTVSGGSISNYYWNWIRQPPGKGLEWIGYIYYIGITDYNPSLKSRVTISVDTSKNQFSLKVTSVTAADTAVYYCAALSGDHAFDIWGQGTLVTVSS
VL: not shown
notes: as for B2
Binding to heavy chain (OD) [1]: 0.6 OD
Binding to Protein S in CaCl2 (OD) (human Protein S [2]): 1.96 OD
Binding to Protein S in EDTA (OD) (human Protein S [3]): 0.1 OD
IC50 APC (human Protein S [4]): 12.8 nM
